Data taken from patent US20110118181A1 (INSTITUT DE RECHERHES CLINIQUES DE MONTREAL, published 2011).
Substitutions are numbered along the chain they refer to. Names may count otherwise. One block for each binder: values may come before it.

Target: T1, PCSK9-V5 (full-length human PCSK9 with C-terminal V5 tag) (human, UniProt Q8NBP7 31-692)
T1 construct: Used as conditioned medium of CHO-K1 cells (Far Western, pull-down) or co-expressed in cells (co-IP); The background says PCSK9 is secreted as a prosegment-PCSK9 heterodimer; also called full-length (FL) PCSK9-V5; native PCSK9; not shown: C-terminal V5 tag
Test: Far Western blot of HEK293 lysates

T1 sequence (Q8NBP7 31-692 limits assumed): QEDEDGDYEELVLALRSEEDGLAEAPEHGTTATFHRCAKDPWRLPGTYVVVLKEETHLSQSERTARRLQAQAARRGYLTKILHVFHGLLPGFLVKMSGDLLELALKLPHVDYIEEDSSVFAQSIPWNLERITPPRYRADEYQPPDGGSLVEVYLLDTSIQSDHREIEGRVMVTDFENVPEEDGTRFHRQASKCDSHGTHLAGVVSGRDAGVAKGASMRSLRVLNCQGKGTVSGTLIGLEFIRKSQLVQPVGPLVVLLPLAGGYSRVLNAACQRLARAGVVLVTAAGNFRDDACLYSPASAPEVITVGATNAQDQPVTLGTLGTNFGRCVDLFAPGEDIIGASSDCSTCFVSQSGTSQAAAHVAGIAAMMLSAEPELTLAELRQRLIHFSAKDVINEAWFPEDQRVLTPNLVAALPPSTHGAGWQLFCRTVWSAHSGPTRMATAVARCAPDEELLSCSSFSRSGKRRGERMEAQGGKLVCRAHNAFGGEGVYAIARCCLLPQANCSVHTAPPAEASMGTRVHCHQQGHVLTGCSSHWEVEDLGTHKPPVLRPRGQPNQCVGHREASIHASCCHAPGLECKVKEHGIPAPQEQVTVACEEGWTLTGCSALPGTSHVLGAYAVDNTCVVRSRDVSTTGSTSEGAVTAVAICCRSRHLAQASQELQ

binding result: no binding
B7: AnxA2 77RRTKK>AATAK (HA-tagged) (other)
chain: MSTVHEILCKLSLEGDHSTPPSAYGSVKAYTNFDAERDALNIETAIKTKGVDEVTIVNILTNRSNAQRQDIAFAYQAATAKELASALKSALSGHLETVILGLLKTPAQYDASELKASMKGLGTDEDSLIEIICSRTNQELQEINRVYKEMYKTDLEKDIISDTSGDFRKLMVALAKGRRAEDGSVIDYELIDQDARDLYDAGVKRKGTDVPKWISIMTERSVPHLQKVFDRYKSYSPYDMLESIRKEVKGDLENAFLNLVQCIQNKPLYFADRLYDSMKGKGTRDKVLIRIMVSRSEVDMLKIRSEFKRKYGKSLYYYIQQDTKGDYQKALLYLCGGDDYPYDVPDYA
notes: also called 77AATAK81

binding result: no binding
B9: AnxA2 Δ49-61-HA (other)
chain: MSTVHEILCKLSLEGDHSTPPSAYGSVKAYTNFDAERDALNIETAIKTNRSNAQRQDIAFAYQRRTKKELASALKSALSGHLETVILGLLKTPAQYDASELKASMKGLGTDEDSLIEIICSRTNQELQEINRVYKEMYKTDLEKDIISDTSGDFRKLMVALAKGRRAEDGSVIDYELIDQDARDLYDAGVKRKGTDVPKWISIMTERSVPHLQKVFDRYKSYSPYDMLESIRKEVKGDLENAFLNLVQCIQNKPLYFADRLYDSMKGKGTRDKVLIRIMVSRSEVDMLKIRSEFKRKYGKSLYYYIQQDTKGDYQKALLYLCGGDDYPYDVPDYA

binding result: no binding
B10: AnxA2 Δ89-101-HA (other)
chain: MSTVHEILCKLSLEGDHSTPPSAYGSVKAYTNFDAERDALNIETAIKTKGVDEVTIVNILTNRSNAQRQDIAFAYQRRTKKELASALKLLKTPAQYDASELKASMKGLGTDEDSLIEIICSRTNQELQEINRVYKEMYKTDLEKDIISDTSGDFRKLMVALAKGRRAEDGSVIDYELIDQDARDLYDAGVKRKGTDVPKWISIMTERSVPHLQKVFDRYKSYSPYDMLESIRKEVKGDLENAFLNLVQCIQNKPLYFADRLYDSMKGKGTRDKVLIRIMVSRSEVDMLKIRSEFKRKYGKSLYYYIQQDTKGDYQKALLYLCGGDDYPYDVPDYA

binding result: no binding
B11: AnxA2 Δ62-75-HA (other)
chain: MSTVHEILCKLSLEGDHSTPPSAYGSVKAYTNFDAERDALNIETAIKTKGVDEVTIVNILTQRRTKKELASALKSALSGHLETVILGLLKTPAQYDASELKASMKGLGTDEDSLIEIICSRTNQELQEINRVYKEMYKTDLEKDIISDTSGDFRKLMVALAKGRRAEDGSVIDYELIDQDARDLYDAGVKRKGTDVPKWISIMTERSVPHLQKVFDRYKSYSPYDMLESIRKEVKGDLENAFLNLVQCIQNKPLYFADRLYDSMKGKGTRDKVLIRIMVSRSEVDMLKIRSEFKRKYGKSLYYYIQQDTKGDYQKALLYLCGGDDYPYDVPDYA

binding result: no binding
B12: AnxA2 77…>77AATAAELASALA (HA-tagged) (other)
chain: B7 chain with K81A, K88A

binding result: no binding
B13: AnxA2 Δ37-48-HA (other)
chain: MSTVHEILCKLSLEGDHSTPPSAYGSVKAYTNFDAEKGVDEVTIVNILTNRSNAQRQDIAFAYQRRTKKELASALKSALSGHLETVILGLLKTPAQYDASELKASMKGLGTDEDSLIEIICSRTNQELQEINRVYKEMYKTDLEKDIISDTSGDFRKLMVALAKGRRAEDGSVIDYELIDQDARDLYDAGVKRKGTDVPKWISIMTERSVPHLQKVFDRYKSYSPYDMLESIRKEVKGDLENAFLNLVQCIQNKPLYFADRLYDSMKGKGTRDKVLIRIMVSRSEVDMLKIRSEFKRKYGKSLYYYIQQDTKGDYQKALLYLCGGDDYPYDVPDYA

binding result: no binding
B14: AnxA2 Δ82-88-HA (other)
chain: MSTVHEILCKLSLEGDHSTPPSAYGSVKAYTNFDAERDALNIETAIKTKGVDEVTIVNILTNRSNAQRQDIAFAYQRRTKKSALSGHLETVILGLLKTPAQYDASELKASMKGLGTDEDSLIEIICSRTNQELQEINRVYKEMYKTDLEKDIISDTSGDFRKLMVALAKGRRAEDGSVIDYELIDQDARDLYDAGVKRKGTDVPKWISIMTERSVPHLQKVFDRYKSYSPYDMLESIRKEVKGDLENAFLNLVQCIQNKPLYFADRLYDSMKGKGTRDKVLIRIMVSRSEVDMLKIRSEFKRKYGKSLYYYIQQDTKGDYQKALLYLCGGDDYPYDVPDYA

Second part, the binder before the results:

B1: AnxA2 77RRTKK>AATAA (HA-tagged) (other)
chain: B7 chain with K81A
notes: also called 77AATAA81
binding result: no binding

B2: AnxA2 Δ25-36-HA (other)
chain: MSTVHEILCKLSLEGDHSTPPSAYRDALNIETAIKTKGVDEVTIVNILTNRSNAQRQDIAFAYQRRTKKELASALKSALSGHLETVILGLLKTPAQYDASELKASMKGLGTDEDSLIEIICSRTNQELQEINRVYKEMYKTDLEKDIISDTSGDFRKLMVALAKGRRAEDGSVIDYELIDQDARDLYDAGVKRKGTDVPKWISIMTERSVPHLQKVFDRYKSYSPYDMLESIRKEVKGDLENAFLNLVQCIQNKPLYFADRLYDSMKGKGTRDKVLIRIMVSRSEVDMLKIRSEFKRKYGKSLYYYIQQDTKGDYQKALLYLCGGDDYPYDVPDYA
binding result: no binding

B3: AnxA2 K28S+D34N+E36S (HA-tagged) (other)
chain: B7 chain with K28S, D34N, E36S, A77R, A78R, A80K
binding result: binds

B4: AnxA2 Δ37-66-HA (other)
chain: MSTVHEILCKLSLEGDHSTPPSAYGSVKAYTNFDAEQRQDIAFAYQRRTKKELASALKSALSGHLETVILGLLKTPAQYDASELKASMKGLGTDEDSLIEIICSRTNQELQEINRVYKEMYKTDLEKDIISDTSGDFRKLMVALAKGRRAEDGSVIDYELIDQDARDLYDAGVKRKGTDVPKWISIMTERSVPHLQKVFDRYKSYSPYDMLESIRKEVKGDLENAFLNLVQCIQNKPLYFADRLYDSMKGKGTRDKVLIRIMVSRSEVDMLKIRSEFKRKYGKSLYYYIQQDTKGDYQKALLYLCGGDDYPYDVPDYA
binding result: no binding

B5: AnxA2 Δ102-108-HA (other)
chain: MSTVHEILCKLSLEGDHSTPPSAYGSVKAYTNFDAERDALNIETAIKTKGVDEVTIVNILTNRSNAQRQDIAFAYQRRTKKELASALKSALSGHLETVILGYDASELKASMKGLGTDEDSLIEIICSRTNQELQEINRVYKEMYKTDLEKDIISDTSGDFRKLMVALAKGRRAEDGSVIDYELIDQDARDLYDAGVKRKGTDVPKWISIMTERSVPHLQKVFDRYKSYSPYDMLESIRKEVKGDLENAFLNLVQCIQNKPLYFADRLYDSMKGKGTRDKVLIRIMVSRSEVDMLKIRSEFKRKYGKSLYYYIQQDTKGDYQKALLYLCGGDDYPYDVPDYA
binding result: no binding

B6: AnxA2 Δ74-88-HA (other)
chain: MSTVHEILCKLSLEGDHSTPPSAYGSVKAYTNFDAERDALNIETAIKTKGVDEVTIVNILTNRSNAQRQDIAFSALSGHLETVILGLLKTPAQYDASELKASMKGLGTDEDSLIEIICSRTNQELQEINRVYKEMYKTDLEKDIISDTSGDFRKLMVALAKGRRAEDGSVIDYELIDQDARDLYDAGVKRKGTDVPKWISIMTERSVPHLQKVFDRYKSYSPYDMLESIRKEVKGDLENAFLNLVQCIQNKPLYFADRLYDSMKGKGTRDKVLIRIMVSRSEVDMLKIRSEFKRKYGKSLYYYIQQDTKGDYQKALLYLCGGDDYPYDVPDYA
binding result: no binding

B8: AnxA2 80KKELA>GKPLD (HA-tagged) (other)
chain: B7 chain with A77R, A78R, A80G, E82P, A84D
notes: also called 80KKELA84 replaced with AnxA1 loop 89GKPLD93
binding result: binds
